Patent US20140087995A1 (published 2014)
Numbered stars: 1 amine (or outer) side, 2 acyl side, 3 side chain; on linkers, the order of the positions; unused ones are H or OH. Bridge positions count the residues as written; N and C are the ends. * marks the point of attachment. C20 diacid = O=C(O)CCCCCCCCCCCCCCCCCCC(=O)*; γGlu = O=C(O)[C@H](CCC(=O)[*:2])N[*:1]

B1: N^α1-[(4S)-4-carboxy-4-(19-carboxynonadecanoylamino)butanoyl]-[Glu14,Arg17,Pro21,Pro26]-h-amylin (peptide)
peptide: {C20 diacid-γGlu}-KCNTATCATQRLAEFLRHSSPNFGAPLSSTNVGSNTY-NH2
modifications: disulfide 2-7
SMILES: CC(C)C[C@H](NC(=O)[C@H](CCCNC(=N)N)NC(=O)[C@H](CCC(N)=O)NC(=O)[C@@H](NC(=O)[C@H](C)NC(=O)[C@@H]1CSSC[C@H](NC(=O)[C@H](CCCCN)NC(=O)CC[C@H](NC(=O)CCCCCCCCCCCCCCCCCCC(=O)O)C(=O)O)C(=O)N[C@@H](CC(N)=O)C(=O)N[C@@H]([C@@H](C)O)C(=O)N[C@@H](C)C(=O)N[C@@H]([C@@H](C)O)C(=O)N1)[C@@H](C)O)C(=O)N[C@@H](C)C(=O)N[C@@H](CCC(=O)O)C(=O)N[C@@H](Cc1ccccc1)C(=O)N[C@@H](CC(C)C)C(=O)N[C@@H](CCCNC(=N)N)C(=O)N[C@@H](Cc1c[nH]cn1)C(=O)N[C@@H](CO)C(=O)N[C@@H](CO)C(=O)N1CCC[C@H]1C(=O)N[C@@H](CC(N)=O)C(=O)N[C@@H](Cc1ccccc1)C(=O)NCC(=O)N[C@@H](C)C(=O)N1CCC[C@H]1C(=O)N[C@@H](CC(C)C)C(=O)N[C@@H](CO)C(=O)N[C@@H](CO)C(=O)N[C@H](C(=O)N[C@@H](CC(N)=O)C(=O)N[C@H](C(=O)NCC(=O)N[C@@H](CO)C(=O)N[C@@H](CC(N)=O)C(=O)N[C@H](C(=O)N[C@@H](Cc1ccc(O)cc1)C(N)=O)[C@@H](C)O)C(C)C)[C@@H](C)O
notes: also called 14E, 17R, 21P, 26P
B2: N^α1-[(4S)-4-carboxy-4-(19-carboxynonadecanoylamino)butanoyl]-[Glu14,Arg17,Pro21,Pro27,Pro34]-h-amylin (peptide)
peptide: {C20 diacid-γGlu}-KCNTATCATQRLAEFLRHSSPNFGAIPSSTNVGPNTY-NH2
modifications: disulfide 2-7
SMILES: CC[C@H](C)[C@H](NC(=O)[C@H](C)NC(=O)CNC(=O)[C@H](Cc1ccccc1)NC(=O)[C@H](CC(N)=O)NC(=O)[C@@H]1CCCN1C(=O)[C@H](CO)NC(=O)[C@H](CO)NC(=O)[C@H](Cc1c[nH]cn1)NC(=O)[C@H](CCCNC(=N)N)NC(=O)[C@H](CC(C)C)NC(=O)[C@H](Cc1ccccc1)NC(=O)[C@H](CCC(=O)O)NC(=O)[C@H](C)NC(=O)[C@H](CC(C)C)NC(=O)[C@H](CCCNC(=N)N)NC(=O)[C@H](CCC(N)=O)NC(=O)[C@@H](NC(=O)[C@H](C)NC(=O)[C@@H]1CSSC[C@H](NC(=O)[C@H](CCCCN)NC(=O)CC[C@H](NC(=O)CCCCCCCCCCCCCCCCCCC(=O)O)C(=O)O)C(=O)N[C@@H](CC(N)=O)C(=O)N[C@@H]([C@@H](C)O)C(=O)N[C@@H](C)C(=O)N[C@@H]([C@@H](C)O)C(=O)N1)[C@@H](C)O)C(=O)N1CCC[C@H]1C(=O)N[C@@H](CO)C(=O)N[C@@H](CO)C(=O)N[C@H](C(=O)N[C@@H](CC(N)=O)C(=O)N[C@H](C(=O)NCC(=O)N1CCC[C@H]1C(=O)N[C@@H](CC(N)=O)C(=O)N[C@H](C(=O)N[C@@H](Cc1ccc(O)cc1)C(N)=O)[C@@H](C)O)C(C)C)[C@@H](C)O
notes: also called 14E, 17R, 21P, 27P, 34P
B3: N^α1-[(4S)-4-carboxy-4-(19-carboxynonadecanoylamino)butanoyl]-[Glu14,Arg17,Pro21,Pro27,Asp35,Pro37]-h-amylin (peptide)
peptide: {C20 diacid-γGlu}-KCNTATCATQRLAEFLRHSSPNFGAIPSSTNVGSDTP-NH2
modifications: disulfide 2-7
SMILES: CC[C@H](C)[C@H](NC(=O)[C@H](C)NC(=O)CNC(=O)[C@H](Cc1ccccc1)NC(=O)[C@H](CC(N)=O)NC(=O)[C@@H]1CCCN1C(=O)[C@H](CO)NC(=O)[C@H](CO)NC(=O)[C@H](Cc1c[nH]cn1)NC(=O)[C@H](CCCNC(=N)N)NC(=O)[C@H](CC(C)C)NC(=O)[C@H](Cc1ccccc1)NC(=O)[C@H](CCC(=O)O)NC(=O)[C@H](C)NC(=O)[C@H](CC(C)C)NC(=O)[C@H](CCCNC(=N)N)NC(=O)[C@H](CCC(N)=O)NC(=O)[C@@H](NC(=O)[C@H](C)NC(=O)[C@@H]1CSSC[C@H](NC(=O)[C@H](CCCCN)NC(=O)CC[C@H](NC(=O)CCCCCCCCCCCCCCCCCCC(=O)O)C(=O)O)C(=O)N[C@@H](CC(N)=O)C(=O)N[C@@H]([C@@H](C)O)C(=O)N[C@@H](C)C(=O)N[C@@H]([C@@H](C)O)C(=O)N1)[C@@H](C)O)C(=O)N1CCC[C@H]1C(=O)N[C@@H](CO)C(=O)N[C@@H](CO)C(=O)N[C@H](C(=O)N[C@@H](CC(N)=O)C(=O)N[C@H](C(=O)NCC(=O)N[C@@H](CO)C(=O)N[C@@H](CC(=O)O)C(=O)N[C@H](C(=O)N1CCC[C@H]1C(N)=O)[C@@H](C)O)C(C)C)[C@@H](C)O
notes: also called 14E, 17R, 21P, 27P, 35D, 37P
B4: N^α1-[(4S)-4-carboxy-4-(19-carboxynonadecanoylamino)butanoyl]-[Glu14,Arg17,Pro21,Pro27,Pro31]-h-amylin (peptide)
peptide: {C20 diacid-γGlu}-KCNTATCATQRLAEFLRHSSPNFGAIPSSTPVGSNTY-NH2
modifications: disulfide 2-7
SMILES: CC[C@H](C)[C@H](NC(=O)[C@H](C)NC(=O)CNC(=O)[C@H](Cc1ccccc1)NC(=O)[C@H](CC(N)=O)NC(=O)[C@@H]1CCCN1C(=O)[C@H](CO)NC(=O)[C@H](CO)NC(=O)[C@H](Cc1c[nH]cn1)NC(=O)[C@H](CCCNC(=N)N)NC(=O)[C@H](CC(C)C)NC(=O)[C@H](Cc1ccccc1)NC(=O)[C@H](CCC(=O)O)NC(=O)[C@H](C)NC(=O)[C@H](CC(C)C)NC(=O)[C@H](CCCNC(=N)N)NC(=O)[C@H](CCC(N)=O)NC(=O)[C@@H](NC(=O)[C@H](C)NC(=O)[C@@H]1CSSC[C@H](NC(=O)[C@H](CCCCN)NC(=O)CC[C@H](NC(=O)CCCCCCCCCCCCCCCCCCC(=O)O)C(=O)O)C(=O)N[C@@H](CC(N)=O)C(=O)N[C@@H]([C@@H](C)O)C(=O)N[C@@H](C)C(=O)N[C@@H]([C@@H](C)O)C(=O)N1)[C@@H](C)O)C(=O)N1CCC[C@H]1C(=O)N[C@@H](CO)C(=O)N[C@@H](CO)C(=O)N[C@H](C(=O)N1CCC[C@H]1C(=O)N[C@H](C(=O)NCC(=O)N[C@@H](CO)C(=O)N[C@@H](CC(N)=O)C(=O)N[C@H](C(=O)N[C@@H](Cc1ccc(O)cc1)C(N)=O)[C@@H](C)O)C(C)C)[C@@H](C)O
notes: also called 14E, 17R, 21P, 27P, 31P
B5: N^α1-[(4S)-4-carboxy-4-(19-carboxynonadecanoylamino)butanoyl]-[Glu14,Arg17,Pro21,Pro27,Pro37]-h-amylin (peptide)
peptide: {C20 diacid-γGlu}-KCNTATCATQRLAEFLRHSSPNFGAIPSSTNVGSNTP-NH2
modifications: disulfide 2-7
SMILES: CC[C@H](C)[C@H](NC(=O)[C@H](C)NC(=O)CNC(=O)[C@H](Cc1ccccc1)NC(=O)[C@H](CC(N)=O)NC(=O)[C@@H]1CCCN1C(=O)[C@H](CO)NC(=O)[C@H](CO)NC(=O)[C@H](Cc1c[nH]cn1)NC(=O)[C@H](CCCNC(=N)N)NC(=O)[C@H](CC(C)C)NC(=O)[C@H](Cc1ccccc1)NC(=O)[C@H](CCC(=O)O)NC(=O)[C@H](C)NC(=O)[C@H](CC(C)C)NC(=O)[C@H](CCCNC(=N)N)NC(=O)[C@H](CCC(N)=O)NC(=O)[C@@H](NC(=O)[C@H](C)NC(=O)[C@@H]1CSSC[C@H](NC(=O)[C@H](CCCCN)NC(=O)CC[C@H](NC(=O)CCCCCCCCCCCCCCCCCCC(=O)O)C(=O)O)C(=O)N[C@@H](CC(N)=O)C(=O)N[C@@H]([C@@H](C)O)C(=O)N[C@@H](C)C(=O)N[C@@H]([C@@H](C)O)C(=O)N1)[C@@H](C)O)C(=O)N1CCC[C@H]1C(=O)N[C@@H](CO)C(=O)N[C@@H](CO)C(=O)N[C@H](C(=O)N[C@@H](CC(N)=O)C(=O)N[C@H](C(=O)NCC(=O)N[C@@H](CO)C(=O)N[C@@H](CC(N)=O)C(=O)N[C@H](C(=O)N1CCC[C@H]1C(N)=O)[C@@H](C)O)C(C)C)[C@@H](C)O
notes: also called 14E, 17R, 21P, 27P, 37P
B6: N^α1-[(4S)-4-carboxy-4-(19-carboxynonadecanoylamino)butanoyl]-[Glu14,Arg17,Pro21,Pro27,His35]-h-amylin (peptide)
peptide: {C20 diacid-γGlu}-KCNTATCATQRLAEFLRHSSPNFGAIPSSTNVGSHTY-NH2
modifications: disulfide 2-7
SMILES: CC[C@H](C)[C@H](NC(=O)[C@H](C)NC(=O)CNC(=O)[C@H](Cc1ccccc1)NC(=O)[C@H](CC(N)=O)NC(=O)[C@@H]1CCCN1C(=O)[C@H](CO)NC(=O)[C@H](CO)NC(=O)[C@H](Cc1c[nH]cn1)NC(=O)[C@H](CCCNC(=N)N)NC(=O)[C@H](CC(C)C)NC(=O)[C@H](Cc1ccccc1)NC(=O)[C@H](CCC(=O)O)NC(=O)[C@H](C)NC(=O)[C@H](CC(C)C)NC(=O)[C@H](CCCNC(=N)N)NC(=O)[C@H](CCC(N)=O)NC(=O)[C@@H](NC(=O)[C@H](C)NC(=O)[C@@H]1CSSC[C@H](NC(=O)[C@H](CCCCN)NC(=O)CC[C@H](NC(=O)CCCCCCCCCCCCCCCCCCC(=O)O)C(=O)O)C(=O)N[C@@H](CC(N)=O)C(=O)N[C@@H]([C@@H](C)O)C(=O)N[C@@H](C)C(=O)N[C@@H]([C@@H](C)O)C(=O)N1)[C@@H](C)O)C(=O)N1CCC[C@H]1C(=O)N[C@@H](CO)C(=O)N[C@@H](CO)C(=O)N[C@H](C(=O)N[C@@H](CC(N)=O)C(=O)N[C@H](C(=O)NCC(=O)N[C@@H](CO)C(=O)N[C@@H](Cc1c[nH]cn1)C(=O)N[C@H](C(=O)N[C@@H](Cc1ccc(O)cc1)C(N)=O)[C@@H](C)O)C(C)C)[C@@H](C)O
notes: also called 14E, 17R, 21P, 27P, 35H

Each binder was assayed against T1, human amylin receptor (human, UniProt P30988 25-474; O60896 24-148, limits assumed) (assay: SPA competition binding, displacement of 125I-rat amylin from membranes with human amylin 3(a) receptor (Assay V)).
T1 construct: whole, on cells; Calcitonin receptor plus RAMP-3 gives the amylin 3(a) receptor; membranes of Amylin 3(a)/CRE-luc cells were used; also called hAmylin-R; hAmylinR
T1 sequence (looked up) 1: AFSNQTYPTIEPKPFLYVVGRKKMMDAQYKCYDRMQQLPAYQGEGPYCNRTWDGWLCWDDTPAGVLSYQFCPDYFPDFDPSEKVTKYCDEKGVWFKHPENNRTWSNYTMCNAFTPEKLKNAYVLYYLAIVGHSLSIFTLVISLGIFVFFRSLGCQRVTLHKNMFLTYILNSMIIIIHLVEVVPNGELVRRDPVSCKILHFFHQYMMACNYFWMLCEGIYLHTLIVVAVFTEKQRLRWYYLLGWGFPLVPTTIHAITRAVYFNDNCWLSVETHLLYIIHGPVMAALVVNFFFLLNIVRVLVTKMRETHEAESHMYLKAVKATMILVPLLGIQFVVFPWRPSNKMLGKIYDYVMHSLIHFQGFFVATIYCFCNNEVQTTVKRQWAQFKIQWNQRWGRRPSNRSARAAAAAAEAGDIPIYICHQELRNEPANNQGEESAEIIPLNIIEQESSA
T1 sequence (looked up) 2: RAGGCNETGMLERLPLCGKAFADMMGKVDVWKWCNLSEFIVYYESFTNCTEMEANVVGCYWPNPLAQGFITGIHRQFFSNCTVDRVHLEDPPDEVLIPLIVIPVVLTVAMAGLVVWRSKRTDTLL
Protocol: The binding assay was performed using scintillation proximity assay (SPA) beads (RPNQ0001) from PerkinElmer and cell membranes from the Amylin 3(a)/CRE-luc cells (as described in Assay (II)) were used. Membranes were prepared in the following way; the cells were rinsed with PBS and incubated with Versene for approximately 5 min before harvesting. The cells were flushed with PBS and the cell-suspension was centrifuged for 5 min at 1000 rpm. Cells were homogenized (ultrathurrax) in a buffer containing 20 mM Na-HEPES and 10 mM EDTA (pH 7.4) and centrifuged at 20.000 rpm for 15 min. The resulting pellet was resuspended, homogenized and centrifuged (20.000 rpm, 15 min) in a buffer containing 20 mM Na-HEPES and 0.1 mM EDTA (pH 7.4, buffer 2). The resulting pellet was resuspended in buffer 2 and protein concentration was measured (BCA protein Assay, Pierce). The homogenate was kept cold during the whole procedure. The membranes were kept at −80° C. until use. The assay was performed in a 384 well Optiplate (PerkinElmer) in a total volume of 40 ul. Membranes were mixed with SPA beads. Final concentration of membranes 35 ng/μL final and SPA beads was 0.05 mg/well. Test-compounds were dissolved in DMSO and further diluted in assay buffer (50 mM Hepes, pH 7.4, 1 mM CaCl2, 5 mM MgCl₂, 0.1% OA and 0.02% Tween20). […] The final mixture was incubated with shaking at 400 rpm for 120 min at 25° C. prior to centrifugation (1500 rpm, 10 min). Samples were analyzed on TopCounter™ (Packard). The IC₅₀ was calculated using (one site binding competition analysis) GraphPad Prism5 as a measure of receptor affinity.

**Q.** Which IC50 does the source give for B1 here?
**A.** 0.674 nM

**Q.** Which IC50 does the source give for B2 here?
**A.** 0.1 nM

**Q.** With B3 as the binder, how does the IC50 read?
**A.** 0.105 nM

**Q.** With B4 as the binder, how does the IC50 read?
**A.** 0.204 nM

**Q.** For B5, which IC50 is on record?
**A.** 0.072 nM

**Q.** Which IC50 does the source give for B6 here?
**A.** 0.554 nM
